Source: PMC12866951 (Cell, 2026)

T1: S.c. Rad27 (Fen1) flap endonuclease with a 6xHis tag at the C-terminus (S. cerevisiae, UniProt P26793 1-382)
T1 sequence (looked up): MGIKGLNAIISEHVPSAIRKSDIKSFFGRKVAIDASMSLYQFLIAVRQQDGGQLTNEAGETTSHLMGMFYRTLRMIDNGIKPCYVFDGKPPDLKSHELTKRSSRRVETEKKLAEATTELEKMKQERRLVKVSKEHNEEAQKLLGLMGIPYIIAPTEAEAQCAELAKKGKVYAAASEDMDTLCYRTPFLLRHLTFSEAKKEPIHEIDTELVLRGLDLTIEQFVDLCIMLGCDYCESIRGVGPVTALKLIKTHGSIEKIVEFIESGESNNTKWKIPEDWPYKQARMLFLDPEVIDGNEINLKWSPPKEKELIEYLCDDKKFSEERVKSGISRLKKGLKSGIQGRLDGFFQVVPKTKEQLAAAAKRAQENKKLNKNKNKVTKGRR


Experiments:
[1] = biological target: T1, S.c. Rad27 (Fen1) flap endonuclease …; assay: mass photometry
[2] = biological target: T1, S.c. Rad27 (Fen1) flap endonuclease …; assay: single-molecule colocalisation on DNA

Row | binding result [1] | binding result [2] | Binder
1 | binds | – | PCNA (as used in mass photometry; tag and label not stated) (natural protein, S. cerevisiae, UniProt P15873 1-258, looked up) MLEAKFEEASLFKRIIDGFKDCVQLVNFQCKEDGIIAQAVDDSRVLLVSLEIGVEAFQEYRCDHPVTLGMDLTSLSKILRCGNNTDTLTLIADNTPDSIILLFEDTKKDRIAEYSLKLMDIDADFLKIEELQYDSTLSLPSSEFSKIVRDLSQLSDSINIMITKETIKFVADGDIGSGSVIIKPFVDMEHPETSIKLEMDQPVDLTFGAKYLLDIIKGSSLSDRVGIRLSSEAPALFQFDLKSGFLQFFLAPKFNDEE
2 | – | binds | LD655-PCNA (S. cerevisiae 3X FLAG-S6-tagged PCNA labeled with LD655) (natural protein, UniProt P15873 1-258, looked up, LD655 (from LD655-CoA, by SFP synthase) on the single serine residue of the S6 tag) MLEAKFEEASLFKRIIDGFKDCVQLVNFQCKEDGIIAQAVDDSRVLLVSLEIGVEAFQEYRCDHPVTLGMDLTSLSKILRCGNNTDTLTLIADNTPDSIILLFEDTKKDRIAEYSLKLMDIDADFLKIEELQYDSTLSLPSSEFSKIVRDLSQLSDSINIMITKETIKFVADGDIGSGSVIIKPFVDMEHPETSIKLEMDQPVDLTFGAKYLLDIIKGSSLSDRVGIRLSSEAPALFQFDLKSGFLQFFLAPKFNDEE
